Where a chain is given by its changes, count along the chain named.
T1: MutS (Escherichia coli, UniProt P23909 1-853)
T1 sequence: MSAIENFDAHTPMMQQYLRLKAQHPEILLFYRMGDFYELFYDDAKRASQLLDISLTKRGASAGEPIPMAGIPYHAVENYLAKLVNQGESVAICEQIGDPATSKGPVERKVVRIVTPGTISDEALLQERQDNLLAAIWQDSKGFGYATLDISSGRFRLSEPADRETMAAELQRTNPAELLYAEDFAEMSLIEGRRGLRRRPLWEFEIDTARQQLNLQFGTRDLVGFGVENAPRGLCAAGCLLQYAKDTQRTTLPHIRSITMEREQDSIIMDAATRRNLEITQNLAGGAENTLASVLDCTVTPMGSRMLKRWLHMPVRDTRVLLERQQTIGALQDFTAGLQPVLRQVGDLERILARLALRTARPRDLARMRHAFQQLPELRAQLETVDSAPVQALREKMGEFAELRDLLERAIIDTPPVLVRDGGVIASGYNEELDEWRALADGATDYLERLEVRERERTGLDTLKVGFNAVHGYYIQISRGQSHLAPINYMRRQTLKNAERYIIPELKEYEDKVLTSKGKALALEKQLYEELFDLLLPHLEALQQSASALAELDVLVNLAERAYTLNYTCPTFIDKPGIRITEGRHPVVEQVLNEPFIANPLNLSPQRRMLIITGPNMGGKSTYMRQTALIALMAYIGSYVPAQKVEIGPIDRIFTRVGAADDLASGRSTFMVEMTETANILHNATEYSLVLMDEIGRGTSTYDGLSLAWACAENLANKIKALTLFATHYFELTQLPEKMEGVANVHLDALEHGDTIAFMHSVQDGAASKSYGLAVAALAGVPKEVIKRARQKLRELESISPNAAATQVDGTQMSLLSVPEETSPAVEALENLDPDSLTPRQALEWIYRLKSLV

T2: mutS-A842E (Escherichia coli, UniProt P23909 1-853, A842E)
T2 sequence: T1 sequence with A842E

B1: 30-1ΔT (dsDNA)
DNA 1: AACTGCCAGGCACCAGTGTCAGCGTCGTAT
DNA 2: ATACGACGCTGACACTGGTGCCTTGGCAGTT
B2: 30-GT (dsDNA)
DNA 1: B1 DNA 1
DNA 2: ATACGACGCTGACACTGGTGCTTGGCAGTT

Key:
MutS [1] = biological target: T1, MutS; assay: stopped-flow FRET kinetics
MutS [2] = biological target: T1, MutS; assay: stopped-flow FRET kinetics; remark: listed apart in the source
mutS-A842E = biological target: T2, mutS-A842E; assay: EMSA
MutS [3] = biological target: T1, MutS; assay: stopped-flow FRET kinetics; remark: listed apart in the source
MutS [4] = biological target: T1, MutS; assay: stopped-flow FRET kinetics; remark: listed apart in the source
MutS [5] = biological target: T1, MutS; assay: stopped-flow FRET kinetics; remark: listed apart in the source
MutS [6] = biological target: T1, MutS; assay: FRET equilibrium titration
MutS [7] = biological target: T1, MutS; assay: stopped-flow FRET kinetics; remark: listed apart in the source
MutS [8] = biological target: T1, MutS; assay: FRET equilibrium titration; remark: listed apart in the source
MutS [9] = biological target: T1, MutS; assay: FRET equilibrium titration; remark: listed apart in the source
MutS [10] = biological target: T1, MutS; assay: FRET equilibrium titration; remark: listed apart in the source
MutS [11] = biological target: T1, MutS; assay: FRET equilibrium titration; remark: listed apart in the source
MutS [12] = biological target: T1, MutS; assay: stopped-flow FRET kinetics; remark: listed apart in the source

Row | Binder | Kd (MutS [1]) [nM] | Kd (MutS [2]) [nM] | binding result (mutS-A842E) | Kd (MutS [3]) [nM] | Kd (MutS [4]) [nM] | Kd (MutS [5]) [nM] | Kd (MutS [6]) [nM] | Kd (MutS [7]) [nM] | Kd (MutS [8]) [nM] | Kd (MutS [9]) [nM] | Kd (MutS [10]) [nM] | Kd (MutS [11]) [nM] | Kd (MutS [12]) [nM]
1 | B1 | 321 | 39 | binds | 91 | 50 | 137 | 123 | 27 | 62 | 56 | – | – | –
2 | B2 | – | – | – | 91 | – | – | – | – | 74 | – | 69 | ~176 | 26
